Measured values from patent US20050026285A1 (Harvard, published 2005).
Each block holds one molecule with its values, some of them ahead of it.

Experiments:
[1] = target: c-Jun (recombinant: overexpressed in 293T cells or in vitro translated); assay: cell-based or functional assay
[2] = target: c-Jun/c-Fos AP-1 complex; assay: cell-based or functional assay
[3] = target: T1, endogenous KRC of Jurkat T cells (human, UniProt Q5T1R4 1-2406, limits assumed); assay: anti-c-Jun IP from PMA/ionomycin-stimulated Jurkat cells, blot with anti-KRC antisera
T1 construct: Detected with anti-KRC rabbit antisera in anti-c-Jun immunoprecipitates
T1 sequence (Q5T1R4 whole entry): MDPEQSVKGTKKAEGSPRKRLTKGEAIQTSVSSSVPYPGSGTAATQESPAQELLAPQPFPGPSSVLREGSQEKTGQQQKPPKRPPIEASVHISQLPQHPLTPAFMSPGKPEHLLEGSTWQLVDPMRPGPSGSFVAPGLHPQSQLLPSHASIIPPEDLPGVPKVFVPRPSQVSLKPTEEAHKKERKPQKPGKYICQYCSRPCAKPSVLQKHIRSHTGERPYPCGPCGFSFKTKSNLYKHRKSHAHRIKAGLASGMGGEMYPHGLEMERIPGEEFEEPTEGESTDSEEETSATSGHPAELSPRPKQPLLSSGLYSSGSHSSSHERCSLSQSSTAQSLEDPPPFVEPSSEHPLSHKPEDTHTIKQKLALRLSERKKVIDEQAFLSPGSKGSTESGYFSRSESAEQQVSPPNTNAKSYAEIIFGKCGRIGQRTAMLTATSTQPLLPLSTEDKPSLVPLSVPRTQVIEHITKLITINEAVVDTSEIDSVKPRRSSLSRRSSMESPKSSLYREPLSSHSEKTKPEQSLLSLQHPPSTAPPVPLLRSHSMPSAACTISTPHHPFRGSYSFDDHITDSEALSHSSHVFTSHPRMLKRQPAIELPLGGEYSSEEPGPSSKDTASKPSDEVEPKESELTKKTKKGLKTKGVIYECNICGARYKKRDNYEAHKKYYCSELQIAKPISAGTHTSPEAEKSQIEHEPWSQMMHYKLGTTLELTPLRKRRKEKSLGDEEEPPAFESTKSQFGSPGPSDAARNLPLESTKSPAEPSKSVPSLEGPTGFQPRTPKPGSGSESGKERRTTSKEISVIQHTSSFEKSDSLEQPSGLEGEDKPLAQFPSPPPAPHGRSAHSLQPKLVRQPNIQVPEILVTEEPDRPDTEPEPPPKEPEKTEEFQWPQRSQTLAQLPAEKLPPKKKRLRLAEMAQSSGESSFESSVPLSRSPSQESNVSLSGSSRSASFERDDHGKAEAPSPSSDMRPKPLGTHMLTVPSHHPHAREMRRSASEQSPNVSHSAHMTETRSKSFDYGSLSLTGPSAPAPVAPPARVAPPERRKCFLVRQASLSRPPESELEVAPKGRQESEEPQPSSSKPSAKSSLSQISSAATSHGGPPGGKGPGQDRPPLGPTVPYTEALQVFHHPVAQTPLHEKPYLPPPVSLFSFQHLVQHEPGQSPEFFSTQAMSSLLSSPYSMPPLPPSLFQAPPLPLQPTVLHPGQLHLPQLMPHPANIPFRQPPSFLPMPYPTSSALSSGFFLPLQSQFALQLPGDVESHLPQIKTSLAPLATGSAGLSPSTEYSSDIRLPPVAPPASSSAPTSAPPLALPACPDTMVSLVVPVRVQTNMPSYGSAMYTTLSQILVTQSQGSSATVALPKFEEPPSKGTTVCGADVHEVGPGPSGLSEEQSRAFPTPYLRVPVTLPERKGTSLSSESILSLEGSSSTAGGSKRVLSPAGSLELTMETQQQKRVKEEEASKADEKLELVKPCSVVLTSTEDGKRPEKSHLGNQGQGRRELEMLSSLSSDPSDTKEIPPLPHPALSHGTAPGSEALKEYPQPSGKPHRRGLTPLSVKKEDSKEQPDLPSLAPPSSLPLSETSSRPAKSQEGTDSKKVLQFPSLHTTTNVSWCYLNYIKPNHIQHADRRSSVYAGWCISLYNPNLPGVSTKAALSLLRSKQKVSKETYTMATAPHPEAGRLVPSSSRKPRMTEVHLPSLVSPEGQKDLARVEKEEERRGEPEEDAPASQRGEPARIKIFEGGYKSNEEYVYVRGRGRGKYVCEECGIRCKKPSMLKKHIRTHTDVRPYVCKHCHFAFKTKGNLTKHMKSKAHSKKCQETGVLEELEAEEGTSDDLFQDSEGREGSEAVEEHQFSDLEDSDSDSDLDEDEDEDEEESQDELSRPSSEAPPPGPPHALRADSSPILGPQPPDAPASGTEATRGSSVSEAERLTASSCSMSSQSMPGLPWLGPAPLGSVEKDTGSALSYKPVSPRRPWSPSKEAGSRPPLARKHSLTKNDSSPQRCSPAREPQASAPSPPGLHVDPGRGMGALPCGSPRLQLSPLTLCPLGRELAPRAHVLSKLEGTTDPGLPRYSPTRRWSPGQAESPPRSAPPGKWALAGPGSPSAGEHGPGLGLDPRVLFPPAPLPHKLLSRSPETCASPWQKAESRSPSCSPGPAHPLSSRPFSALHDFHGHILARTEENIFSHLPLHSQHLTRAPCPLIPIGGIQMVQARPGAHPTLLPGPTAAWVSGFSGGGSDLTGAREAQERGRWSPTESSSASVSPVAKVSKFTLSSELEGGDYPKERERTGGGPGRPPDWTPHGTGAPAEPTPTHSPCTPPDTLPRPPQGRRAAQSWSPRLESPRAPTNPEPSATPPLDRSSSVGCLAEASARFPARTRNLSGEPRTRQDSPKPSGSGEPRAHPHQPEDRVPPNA
Experimental: (§1) FIG. 21(A) 293T cells were transfected with c-Jun and myc-KRCtr. 48 hours later, lysates were immunoprecipitated with anti-Myc antibody. Immunoprecipitates were probed by western blotting with anti-c-Jun antibody. FIG. 21(B) (left panel) 293T cells were cotransfected with c-Jun and full length His-KRC. 48 hours later, lysates were immunoprecipitated with anti-His antibody (DE8 Omniprobe) and precipitates were probed by western blotting with anti-c-Jun antibody. (right panel) In vitro translated and S35-labelled c-Jun and His-KRCtr were mixed and immunoprecipitated with anti-His antibody. Recovered c-Jun protein was visualized by autoradiography. FIG. 21(C) Jurkat or EL4 T cells were stimulated with PMA plus ionomycin for 45 minutes. Lysates were immunoprecipitated with anti-c-Jun antibody, and immunoprecipitates were probed with specific anti-KRC rabbit antisera. FIG. 21(D) (upper panel) 293T cells were transfected with AP-1 Luciferase along with c-Jun, c-Fos, and KRC. 24 hours later, Luciferase activity was determined as above. […] 24 hours later, luciferase activity was determined as above. […]

[4] = target: endogenous KRC of EL4 T cells (UniProt A2A884 1-2348, limits assumed); assay: anti-c-Jun IP from PMA/ionomycin-stimulated EL4 cells, blot with anti-KRC antisera
Sequence of endogenous KRC of EL4 T cells (A2A884 whole entry): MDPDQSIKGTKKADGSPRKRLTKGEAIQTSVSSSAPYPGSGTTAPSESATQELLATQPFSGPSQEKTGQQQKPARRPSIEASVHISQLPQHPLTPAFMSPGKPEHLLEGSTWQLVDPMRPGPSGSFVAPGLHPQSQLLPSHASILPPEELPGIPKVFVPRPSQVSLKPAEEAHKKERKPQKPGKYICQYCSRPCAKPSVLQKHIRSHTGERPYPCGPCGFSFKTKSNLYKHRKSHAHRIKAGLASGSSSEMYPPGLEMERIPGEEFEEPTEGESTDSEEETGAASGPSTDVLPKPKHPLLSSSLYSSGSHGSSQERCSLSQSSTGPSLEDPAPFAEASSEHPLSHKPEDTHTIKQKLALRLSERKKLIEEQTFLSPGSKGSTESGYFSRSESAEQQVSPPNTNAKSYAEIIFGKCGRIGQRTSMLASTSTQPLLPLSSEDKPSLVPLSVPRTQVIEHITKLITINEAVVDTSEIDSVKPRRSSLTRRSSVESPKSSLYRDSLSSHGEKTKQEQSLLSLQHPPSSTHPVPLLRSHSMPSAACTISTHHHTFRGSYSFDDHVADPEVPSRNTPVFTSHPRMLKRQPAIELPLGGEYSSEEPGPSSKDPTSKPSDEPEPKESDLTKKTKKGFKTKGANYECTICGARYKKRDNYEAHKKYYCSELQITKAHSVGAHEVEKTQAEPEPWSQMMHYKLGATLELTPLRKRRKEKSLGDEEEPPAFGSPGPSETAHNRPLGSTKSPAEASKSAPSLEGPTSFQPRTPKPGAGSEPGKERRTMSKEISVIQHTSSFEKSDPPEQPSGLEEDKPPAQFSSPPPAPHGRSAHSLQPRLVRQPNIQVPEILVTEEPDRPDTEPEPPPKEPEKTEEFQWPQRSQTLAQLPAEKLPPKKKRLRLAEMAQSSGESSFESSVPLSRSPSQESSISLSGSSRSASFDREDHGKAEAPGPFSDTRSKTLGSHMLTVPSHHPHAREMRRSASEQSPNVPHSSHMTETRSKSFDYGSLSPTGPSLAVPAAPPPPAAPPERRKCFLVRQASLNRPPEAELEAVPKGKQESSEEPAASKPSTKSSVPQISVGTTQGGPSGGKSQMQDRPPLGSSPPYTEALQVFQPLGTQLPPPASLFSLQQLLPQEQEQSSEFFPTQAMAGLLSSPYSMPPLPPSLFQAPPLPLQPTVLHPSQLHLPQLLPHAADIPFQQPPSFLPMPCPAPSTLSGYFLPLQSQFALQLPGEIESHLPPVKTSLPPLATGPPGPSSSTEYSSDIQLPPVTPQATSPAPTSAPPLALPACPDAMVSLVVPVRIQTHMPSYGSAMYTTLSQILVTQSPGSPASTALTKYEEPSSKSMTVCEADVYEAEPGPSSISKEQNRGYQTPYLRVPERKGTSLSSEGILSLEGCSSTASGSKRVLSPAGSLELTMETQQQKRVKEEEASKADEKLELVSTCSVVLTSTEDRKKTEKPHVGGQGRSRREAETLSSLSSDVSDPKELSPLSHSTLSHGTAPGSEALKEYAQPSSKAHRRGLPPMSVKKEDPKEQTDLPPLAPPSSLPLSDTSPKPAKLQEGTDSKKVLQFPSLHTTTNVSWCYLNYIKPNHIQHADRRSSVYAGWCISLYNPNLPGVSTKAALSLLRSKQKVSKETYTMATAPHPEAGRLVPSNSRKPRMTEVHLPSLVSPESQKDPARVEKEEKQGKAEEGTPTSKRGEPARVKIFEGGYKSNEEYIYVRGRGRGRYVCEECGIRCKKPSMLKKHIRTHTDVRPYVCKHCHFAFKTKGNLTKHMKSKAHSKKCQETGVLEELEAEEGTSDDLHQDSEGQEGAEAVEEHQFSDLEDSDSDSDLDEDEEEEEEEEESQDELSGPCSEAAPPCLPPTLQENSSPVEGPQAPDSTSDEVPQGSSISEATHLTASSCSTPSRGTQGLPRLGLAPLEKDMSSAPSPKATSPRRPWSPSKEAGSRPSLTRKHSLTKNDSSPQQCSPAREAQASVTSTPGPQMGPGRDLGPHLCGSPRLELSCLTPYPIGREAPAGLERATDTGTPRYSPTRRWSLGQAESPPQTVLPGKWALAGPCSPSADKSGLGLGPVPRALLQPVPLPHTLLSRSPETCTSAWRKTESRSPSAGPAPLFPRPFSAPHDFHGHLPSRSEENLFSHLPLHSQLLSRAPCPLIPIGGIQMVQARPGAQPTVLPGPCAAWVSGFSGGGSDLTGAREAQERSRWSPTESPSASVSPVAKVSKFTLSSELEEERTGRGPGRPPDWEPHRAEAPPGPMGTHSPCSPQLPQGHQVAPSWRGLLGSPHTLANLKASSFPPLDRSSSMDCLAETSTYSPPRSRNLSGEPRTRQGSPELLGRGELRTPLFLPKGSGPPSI
Experimental: as §1

AP-1 luciferase reporter activity in 293T cells overexpressing c-Jun [1]: 5 fold | AP-1 luciferase reporter activity in 293T cells overexpressing c-Jun plus c-Fos [2]: 5 fold
Molecule: KRC (full-length, overexpressed; tag or construct not further specified), Q5T1R4 1-2406

binding result [3]: binds
B1: endogenous c-Jun of Jurkat T cells (other, human, UniProt P05412 1-331, looked up)
chain: MTAKMETTFYDDALNASFLPSESGPYGYSNPKILKQSMTLNLADPVGSLKPHLRAKNSDLLTSPDVGLLKLASPELERLIIQSSNGHITTTPTPTQFLCPKNVTDEQEGFAEGFVRALAELHSQNTLPSVTSAAQPVNGAGMVAPAVASVAGGSGSGGFSASLHSEPPVYANLSNFNPGALSSGGGAPSYGAAGLAFPAQPQQQQQPPHHLPQQMPVQHPRLQALKEEPQTVPEMPGETPPLSPIDMESQERIKAERKRMRNRIAASKCRKRKLERIARLEEKVKTLKAQNSELASTANMLREQVAQLKQKVMNHVNSGCQLMLTQQLQTF
notes: also called AP-1 complexes

binding result [4]: binds
B2: endogenous c-Jun of EL4 T cells (other, UniProt P05627 1-334, looked up)
chain: MTAKMETTFYDDALNASFLQSESGAYGYSNPKILKQSMTLNLADPVGSLKPHLRAKNSDLLTSPDVGLLKLASPELERLIIQSSNGHITTTPTPTQFLCPKNVTDEQEGFAEGFVRALAELHSQNTLPSVTSAAQPVSGAGMVAPAVASVAGAGGGGGYSASLHSEPPVYANLSNFNPGALSSGGGAPSYGAAGLAFPSQPQQQQQPPQPPHHLPQQIPVQHPRLQALKEEPQTVPEMPGETPPLSPIDMESQERIKAERKRMRNRIAASKCRKRKLERIARLEEKVKTLKAQNSELASTANMLREQVAQLKQKVMNHVNSGCQLMLTQQLQTF
notes: also called AP-1 complexes
